# Data reported in US20130035256A1, “Chimeric Polypeptides Useful in Proximal and Dynamic High-Throughput Screening Methods” (ADDEX PHARMA SA, priority 2010, published 2013).
# Entries after “also recorded” stand apart in the source; their conditions may differ.
# How the values were obtained:
# [1] = tested on: receptors endogenously expressed in non-transfected HEK cells; assay: cAMP accumulation in non-transfected HEK cells; type: cell-based, human; conditions: increasing concentrations of ligand
# Description: These ligands are the following: NECA (empty inverted triangles), Corticotropin releasing factor (CRF) (empty diamonds), calcitonin (full circles), isoproterenol (full triangles), UTP (full inverted triangles) and carbachol (full squares). […]
# chimeric M4R (RGLG-2) = target: T1, chimeric M4R (RGLG-2) (Homo sapiens, UniProt P08173); assay: BRET assay of the invention, cells co-expressing chimeric M4R (RGLG-2) and FP-Gγ9; type: cell-based; conditions: increasing concentrations of ligand
# T1 construct: ID; NOs; expressed in transfected cells
# Method: The same cells as described for FIG. 10 A were used. […] The decrease of the signal below baseline in the PTX-treated condition confirms a constitutive activity that has been described for the M4R. […]
# A typical experiment has the following sequence.
# The assay of the present invention was compared with a state of the art calcium based assay. […] In calcium-based assay, a calcium flux is measured in cells co-expressing recombinant M4R and modified Gαq. In the assay in accordance with the present invention, BRET in measured in cells co-expressing a chimeric M4R according to RGLG-2 (construct and cell-line from FIG. 2C, Table 6) and FP-Gγ9 (as described in FIG. 10A). The data represent mean values and they are normalized to the maximal effect of the orthosteric agonist after the subtraction of the basal values.
# chimeric GIPR = target: T2, chimeric GIPR (Homo sapiens, UniProt P48546); assay: BRET assay, specificity of the response of the chimeric GIPR (stable cell line, FP-Gγ9); type: cell-based; conditions: increasing concentrations of ligand
# T2 construct: ID; NOs; expressed in transfected cells
# Method: 5 or 10 minutes after the addition of coelenterazine H to the cells, the read plate is placed in the FLIPR tetra and the measurement begins.
# Finally, a three-addition protocol can also be run on the FLIPR tetra, containing three compound plates, of which the first one usually contains different candidate agents, the second one an agonist at its EC20 and the third one an agonist at its EC80, so that a screen for both positive and negative allosteric modulators can be run at the same time.
# The camera is adjusted in such a way that the gain is set to a maximum of 28,000× and the shutters are opened 100%. The signal captured is regulated by adjusting the exposure time to 0.1 to 3 seconds ideally resulting of a signal between 30,000-60,000 RLU. The read interval (emission filter 1, emission filter 2) is adjusted to the minimal value that results from the addition of the two exposure times (=2×0.1 to 3 seconds) plus the time needed to move the filters from position 1 to position 2 (0.3 sec), resulting in a maximal read frequency of 0.5 seconds (2 Hz).
# Data on FIG. 6 were obtained by applying a two-addition protocol as described above with respect to FIG. 4, with the main differences being the final concentration of coelenterazine H of 6 μM, the exposure time in both channels of 1.5 seconds and the read interval of 3.3 seconds, as well as the presence of 0.2% BSA in the HBSS++ buffer for diluting peptidic ligands. […] The effects of the ligands were read for another 180 reads. Area under curve of blue/yellow ratio from count 31 to the end of the measurement was taken for the analysis and plotted against ligand concentration for the construction of the graph in FIG. 6.
# [2] = target: human GLP-1R-Renilla luciferase-Gαs long fusion protein (type RLG) (human); assay: cell-based or functional assay
# [3] = target: T3, GIPR-L-G (human GIP receptor) (Homo sapiens, UniProt P48546); assay: BRET assay, HEK cells transiently co-transfected with GIPR-L-G and a Gγ construct; type: cell-based; conditions: cells coexpressing GIPR-L-G and the Gγ construct, exposed to GIP
# T3 construct: ID; NOs; expressed in transfected cells; host or cells: HEK cells, transient
# [4] = target: T4, GLP1R-L-G (human GLP-1 receptor) (Homo sapiens, UniProt P43220); assay: BRET assay, HEK cells transiently co-transfected with GLP1R-L-G and a Gγ construct; type: cell-based; conditions: cells coexpressing GLP1R-L-G and the Gγ construct, exposed to GLP-1
# T4 construct: ID; expressed in transfected cells; host or cells: HEK cells, transient
# [5] = target: human GIPR-Renilla luciferase-Gαs long fusion protein (type RLG) (human); assay: cell-based or functional assay
# [6] = target: T5, hM1R fused to split Gαq harbouring a luminescent protein (type RGLG-3)
# T5 chain: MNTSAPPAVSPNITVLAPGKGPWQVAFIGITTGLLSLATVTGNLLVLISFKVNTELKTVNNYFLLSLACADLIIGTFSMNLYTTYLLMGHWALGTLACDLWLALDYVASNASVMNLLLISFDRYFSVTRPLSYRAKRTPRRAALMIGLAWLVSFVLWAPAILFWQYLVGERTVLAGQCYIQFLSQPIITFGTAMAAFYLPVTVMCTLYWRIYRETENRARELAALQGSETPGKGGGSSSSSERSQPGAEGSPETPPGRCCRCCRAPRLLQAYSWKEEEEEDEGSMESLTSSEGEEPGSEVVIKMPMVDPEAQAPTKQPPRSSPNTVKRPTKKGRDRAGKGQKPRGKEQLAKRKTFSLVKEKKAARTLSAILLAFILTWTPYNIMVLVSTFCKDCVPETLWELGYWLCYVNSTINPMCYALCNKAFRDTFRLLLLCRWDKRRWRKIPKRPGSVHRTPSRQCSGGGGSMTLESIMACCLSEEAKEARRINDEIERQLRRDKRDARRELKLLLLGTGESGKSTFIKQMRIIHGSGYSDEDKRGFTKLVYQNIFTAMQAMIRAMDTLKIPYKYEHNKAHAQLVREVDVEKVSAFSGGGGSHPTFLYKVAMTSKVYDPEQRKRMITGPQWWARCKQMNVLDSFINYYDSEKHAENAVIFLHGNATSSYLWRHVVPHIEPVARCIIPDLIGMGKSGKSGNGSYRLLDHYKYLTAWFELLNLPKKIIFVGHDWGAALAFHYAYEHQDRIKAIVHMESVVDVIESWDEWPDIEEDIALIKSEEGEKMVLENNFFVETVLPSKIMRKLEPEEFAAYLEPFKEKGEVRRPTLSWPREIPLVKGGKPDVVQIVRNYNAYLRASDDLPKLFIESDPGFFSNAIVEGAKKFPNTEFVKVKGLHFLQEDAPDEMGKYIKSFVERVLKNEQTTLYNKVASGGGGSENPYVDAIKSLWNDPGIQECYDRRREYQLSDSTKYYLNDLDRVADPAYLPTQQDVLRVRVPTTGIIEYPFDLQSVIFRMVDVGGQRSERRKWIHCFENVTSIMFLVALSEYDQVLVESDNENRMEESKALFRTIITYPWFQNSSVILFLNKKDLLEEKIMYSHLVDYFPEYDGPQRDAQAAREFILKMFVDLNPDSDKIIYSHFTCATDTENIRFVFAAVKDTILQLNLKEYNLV
# [7] = target: hM4-R RGLG-2 fusion construct with the PTX-insensitive mutant (C351S) of Gαo
# [8] = target: T6, hM4-R-Gαo^1-91-Luciferase-Gαo^92-354 fusion protein (type RGLG-2)
# T6 chain: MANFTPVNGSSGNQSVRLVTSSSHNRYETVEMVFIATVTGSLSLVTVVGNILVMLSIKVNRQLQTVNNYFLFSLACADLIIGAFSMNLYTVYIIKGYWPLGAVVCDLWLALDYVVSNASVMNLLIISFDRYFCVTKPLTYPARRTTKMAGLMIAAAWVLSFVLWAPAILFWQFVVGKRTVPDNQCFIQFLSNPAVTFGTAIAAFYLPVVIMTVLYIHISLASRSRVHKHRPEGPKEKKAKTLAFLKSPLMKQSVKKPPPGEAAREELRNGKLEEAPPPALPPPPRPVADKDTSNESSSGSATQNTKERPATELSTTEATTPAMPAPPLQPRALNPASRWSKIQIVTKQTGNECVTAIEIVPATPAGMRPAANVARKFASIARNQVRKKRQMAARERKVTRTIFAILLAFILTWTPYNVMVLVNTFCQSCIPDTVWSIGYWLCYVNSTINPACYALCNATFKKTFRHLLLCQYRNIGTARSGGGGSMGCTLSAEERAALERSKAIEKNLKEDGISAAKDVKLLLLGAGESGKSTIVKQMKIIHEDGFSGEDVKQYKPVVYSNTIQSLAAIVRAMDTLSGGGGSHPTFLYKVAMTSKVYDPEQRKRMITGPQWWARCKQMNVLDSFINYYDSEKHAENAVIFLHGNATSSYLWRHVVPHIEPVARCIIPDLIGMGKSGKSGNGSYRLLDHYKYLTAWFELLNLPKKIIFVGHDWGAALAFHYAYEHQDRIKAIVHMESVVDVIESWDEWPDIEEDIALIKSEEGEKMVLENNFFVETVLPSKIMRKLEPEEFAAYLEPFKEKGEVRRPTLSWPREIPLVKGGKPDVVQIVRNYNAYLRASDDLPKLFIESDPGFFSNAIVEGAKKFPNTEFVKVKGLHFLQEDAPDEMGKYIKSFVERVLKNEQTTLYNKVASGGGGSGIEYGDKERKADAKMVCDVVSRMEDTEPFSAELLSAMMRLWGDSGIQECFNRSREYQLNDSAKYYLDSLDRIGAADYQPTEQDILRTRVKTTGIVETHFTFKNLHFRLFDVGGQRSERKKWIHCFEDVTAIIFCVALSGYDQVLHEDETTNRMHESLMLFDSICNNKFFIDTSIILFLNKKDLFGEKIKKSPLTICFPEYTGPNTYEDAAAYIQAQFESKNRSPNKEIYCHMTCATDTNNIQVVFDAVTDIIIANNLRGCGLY
# T2 sequence (P48546 with tags, fused parts or gaps): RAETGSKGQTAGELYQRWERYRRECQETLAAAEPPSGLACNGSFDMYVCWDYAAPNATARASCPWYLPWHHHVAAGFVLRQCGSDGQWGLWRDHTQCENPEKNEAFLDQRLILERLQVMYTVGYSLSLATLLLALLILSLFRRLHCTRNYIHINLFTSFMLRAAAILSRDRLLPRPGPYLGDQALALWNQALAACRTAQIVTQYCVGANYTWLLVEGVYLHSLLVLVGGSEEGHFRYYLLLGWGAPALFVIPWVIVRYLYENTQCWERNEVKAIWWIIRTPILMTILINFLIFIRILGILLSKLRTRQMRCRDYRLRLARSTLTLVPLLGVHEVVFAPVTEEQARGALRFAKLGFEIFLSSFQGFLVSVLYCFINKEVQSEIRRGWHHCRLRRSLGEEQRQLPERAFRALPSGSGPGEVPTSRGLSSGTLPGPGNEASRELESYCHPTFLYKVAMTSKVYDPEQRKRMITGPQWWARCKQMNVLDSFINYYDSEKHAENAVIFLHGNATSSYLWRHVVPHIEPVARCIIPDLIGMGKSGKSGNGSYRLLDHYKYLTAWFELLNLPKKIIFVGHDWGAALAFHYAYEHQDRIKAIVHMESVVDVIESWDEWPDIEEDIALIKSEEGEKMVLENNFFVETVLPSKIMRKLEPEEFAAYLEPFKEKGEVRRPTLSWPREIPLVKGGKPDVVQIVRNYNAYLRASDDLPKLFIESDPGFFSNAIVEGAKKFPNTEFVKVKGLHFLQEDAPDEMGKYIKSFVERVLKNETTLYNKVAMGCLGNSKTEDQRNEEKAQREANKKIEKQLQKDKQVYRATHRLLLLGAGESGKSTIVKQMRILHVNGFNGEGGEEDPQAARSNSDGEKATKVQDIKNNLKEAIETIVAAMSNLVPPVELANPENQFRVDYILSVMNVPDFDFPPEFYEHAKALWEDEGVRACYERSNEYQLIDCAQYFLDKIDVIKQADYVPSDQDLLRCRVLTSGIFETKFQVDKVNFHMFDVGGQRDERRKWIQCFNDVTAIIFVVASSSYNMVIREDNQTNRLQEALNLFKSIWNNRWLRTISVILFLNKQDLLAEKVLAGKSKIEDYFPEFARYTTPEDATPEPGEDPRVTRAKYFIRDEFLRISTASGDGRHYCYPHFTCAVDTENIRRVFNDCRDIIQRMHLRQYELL
# Chain of human GIPR-Renilla luciferase-Gαs long fusion protein (type RLG) (human) (chain, as listed by the source limits assumed): as the sequence (P48546 with tags, fused parts or gaps) above
# Chain of human GLP-1R-Renilla luciferase-Gαs long fusion protein (type RLG) (human) (chain, as listed by the source limits assumed): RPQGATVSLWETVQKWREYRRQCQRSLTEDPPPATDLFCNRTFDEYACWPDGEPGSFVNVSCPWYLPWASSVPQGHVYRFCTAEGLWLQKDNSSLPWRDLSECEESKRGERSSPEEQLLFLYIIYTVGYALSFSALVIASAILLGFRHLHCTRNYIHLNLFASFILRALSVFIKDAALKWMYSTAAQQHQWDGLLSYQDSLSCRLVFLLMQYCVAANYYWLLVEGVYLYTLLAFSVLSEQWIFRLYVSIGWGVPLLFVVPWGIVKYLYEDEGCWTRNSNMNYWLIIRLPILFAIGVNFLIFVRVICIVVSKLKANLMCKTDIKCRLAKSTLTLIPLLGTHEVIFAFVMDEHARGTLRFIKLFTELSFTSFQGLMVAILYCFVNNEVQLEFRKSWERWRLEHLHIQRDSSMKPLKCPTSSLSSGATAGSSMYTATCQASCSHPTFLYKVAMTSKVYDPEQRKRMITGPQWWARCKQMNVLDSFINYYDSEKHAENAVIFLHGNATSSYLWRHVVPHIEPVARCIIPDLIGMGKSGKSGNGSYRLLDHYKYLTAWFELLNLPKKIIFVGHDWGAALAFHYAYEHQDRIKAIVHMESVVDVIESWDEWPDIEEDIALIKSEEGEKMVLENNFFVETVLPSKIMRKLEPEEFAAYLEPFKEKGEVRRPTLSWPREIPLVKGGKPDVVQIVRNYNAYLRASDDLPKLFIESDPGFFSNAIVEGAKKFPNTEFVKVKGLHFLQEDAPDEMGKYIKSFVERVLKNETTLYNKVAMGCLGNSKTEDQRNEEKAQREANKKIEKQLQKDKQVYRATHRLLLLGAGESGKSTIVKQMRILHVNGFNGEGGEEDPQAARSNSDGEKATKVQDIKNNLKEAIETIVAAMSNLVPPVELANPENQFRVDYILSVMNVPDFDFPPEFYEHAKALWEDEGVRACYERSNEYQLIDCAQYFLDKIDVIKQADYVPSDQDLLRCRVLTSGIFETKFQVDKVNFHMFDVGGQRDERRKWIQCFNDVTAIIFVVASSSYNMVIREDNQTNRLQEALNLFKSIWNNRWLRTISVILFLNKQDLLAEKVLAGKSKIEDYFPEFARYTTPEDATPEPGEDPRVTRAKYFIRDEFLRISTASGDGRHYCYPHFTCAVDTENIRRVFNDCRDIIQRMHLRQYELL
# T3 sequence (P48546 with tags, fused parts or gaps): as the sequence (P48546 with tags, fused parts or gaps) above
molecule,measurement,setting,value
CC(C)NCC(O)c1ccc(O)c(O)c1 (stereo not drawn) [isoproterenol],"activation of endogenously expressed receptors, cAMP accumulation",[1],activated; also recorded: increase in cAMP
same,activation of the chimeric M4R (BRET),chimeric M4R (RGLG-2),lack of activation
same,activation of the chimeric GIPR (BRET),chimeric GIPR,lack of activation
GLP-1 (from UniProt P01275 21-180) (peptide),"EC50 (GLP-1), BRET receptor activation; cells co-expressing FP-Gγ1",[2],1.1 nM
same,"EC50 (GLP-1), BRET receptor activation; cells co-expressing FP-Gγ2",[2],0.7 nM
same,"EC50 (GLP-1), BRET receptor activation; cells co-expressing FP-Gγ3",[2],0.3 nM
same,"EC50 (GLP-1), BRET receptor activation; cells co-expressing FP-Gγ4",[2],1.1 nM
same,"EC50 (GLP-1), BRET receptor activation; cells co-expressing FP-Gγ5",[2],0.1 nM
same,"EC50 (GLP-1), BRET receptor activation; cells co-expressing FP-Gγ7",[2],0.4 nM
same,"EC50 (GLP-1), BRET receptor activation; cells co-expressing FP-Gγ8",[2],1.4 nM
same,"EC50 (GLP-1), BRET receptor activation; cells co-expressing FP-Gγ9",[2],0.4 nM
same,"EC50 (GLP-1), BRET receptor activation; cells co-expressing FP-Gγ10",[2],0.3 nM
same,"EC50 (GLP-1), BRET receptor activation; cells co-expressing FP-Gγ11",[2],0.7 nM
same,"EC50 (GLP-1), BRET receptor activation; cells co-expressing FP-Gγ12",[2],0.3 nM
same,"EC50 (GLP-1), BRET receptor activation; cells co-expressing FP-Gγ13",[2],0.4 nM
same,"EC50 (GLP-1), BRET receptor activation; cells co-expressing Gγ1-FP",[2],1.1 nM
same,"EC50 (GLP-1), BRET receptor activation; cells co-expressing Gγ2-FP",[2],3 nM
same,"EC50 (GLP-1), BRET receptor activation; cells co-expressing Gγ3-FP",[2],1.5 nM
same,"EC50 (GLP-1), BRET receptor activation; cells co-expressing Gγ4-FP",[2],4.3 nM
same,"EC50 (GLP-1), BRET receptor activation; cells co-expressing Gγ7-FP",[2],5.2 nM
same,"EC50 (GLP-1), BRET receptor activation; cells co-expressing Gγ8-FP",[2],2.3 nM
same,"EC50 (GLP-1), BRET receptor activation; cells co-expressing Gγ9-FP",[2],1.7 nM
same,"EC50 (GLP-1), BRET receptor activation; cells co-expressing Gγ10-FP",[2],9.2 nM
same,"EC50 (GLP-1), BRET receptor activation; cells co-expressing Gγ11-FP",[2],3.1 nM
same,"EC50 (GLP-1), BRET receptor activation; cells co-expressing Gγ12-FP",[2],3.1 nM
same,"EC50 (GLP-1), BRET receptor activation; cells co-expressing Gγ13-FP",[2],1 nM
"O=c1ccn([C@@H]2O[C@H](COP(=O)(O)OP(=O)(O)OP(=O)(O)O)[C@@H](O)[C@H]2O)c(=O)[nH]1 [UTP, uridine-5′-triphosphate]","activation of endogenously expressed receptors, cAMP accumulation",[1],activated; also recorded: increase in cAMP
same,activation of the chimeric GIPR (BRET),chimeric GIPR,lack of activation
"Gγ9-FP: fusion protein of human G-protein gamma9 and yellow fluorescent protein YPet, SEQ. ID. NOs. 5, 6",HTS compat.,[3],+
same,HTS compat.,[4],+
calcitonin: ligand of a receptor endogenously expressed in HEK cells,"activation of endogenously expressed receptors, cAMP accumulation",[1],activated; also recorded: increase in cAMP
same,activation of the chimeric M4R (BRET),chimeric M4R (RGLG-2),lack of activation
same,activation of the chimeric GIPR (BRET),chimeric GIPR,lack of activation
"CRF: Corticotropin releasing factor, ligand of a receptor endogenously expressed in HEK cells","activation of endogenously expressed receptors, cAMP accumulation",[1],increase in cAMP
same,"activation of endogenously expressed receptors, cAMP accumulation",[1]; listed as Corticotropin releasing factor,activated
same,activation of the chimeric M4R (BRET),chimeric M4R (RGLG-2),lack of activation
same,activation of the chimeric GIPR (BRET),chimeric GIPR,lack of activation
"CCNC(=O)[C@H]1O[C@@H](n2cnc3c(N)ncnc32)[C@H](O)[C@@H]1O [NECA, 5′-N-ethylcarboxamidoadenosine]","activation of endogenously expressed receptors, cAMP accumulation",[1],activated; also recorded: increase in cAMP
same,activation of the chimeric M4R (BRET),chimeric M4R (RGLG-2),lack of activation
same,activation of the chimeric GIPR (BRET),chimeric GIPR,lack of activation
GIP (from UniProt P09681 52-93) (peptide),"EC50 (GIP), BRET receptor activation; cells co-expressing FP-Gγ9",[5],0.3 nM
same,"EC50 (GIP), BRET receptor activation; cells co-expressing FP-Gγ11",[5],0.4 nM
same,"EC50 (GIP), BRET receptor activation; cells co-expressing FP-Gγ13",[5],0.3 nM
same,"EC50 (GIP), BRET receptor activation; cells co-expressing Gγ5-FP",[5],5.5 nM
same,"EC50 (GIP), BRET receptor activation; cells co-expressing Gγ9-FP",[5],1.4 nM
same,"EC50 (GIP), BRET receptor activation; cells co-expressing Gγ10-FP",[5],8.9 nM
same,"EC50 (GIP), BRET receptor activation; cells co-expressing Gγ11-FP",[5],1.6 nM
same,"EC50 (GIP), BRET receptor activation; cells co-expressing Gγ13-FP",[5],0.6 nM
C[N+](C)(C)CCOC(N)=O [carbachol],"activation of endogenously expressed receptors, cAMP accumulation",[1],activated; also recorded: increase in cAMP
same,activation of the chimeric M4R (BRET),chimeric M4R (RGLG-2),activation
same,activation of the chimeric GIPR (BRET),chimeric GIPR,lack of activation
Bordetella pertussis toxin (protein) DDPPATVYRYDSRPPEDVFQNGFTAWGNNDNVLDHLTGRSCQVGSSNSAFVSTSSSRRYTEVYLEHRMQEAVEAERAGRGTGHFIGYIYEVRADNNFYGAASSYFEYVDTYGDNAGRILAGALATYQSEYLAHRRIPPENIRRVTRVYHNGITGETTTTEYSNARYVSQQTRANPNPYTSRRSVASIVGTLVRMAPVIGACMARQAESSEAMAAWSERAGEAMVLVYYESIAYSF,BRET signal change in response to acetylcholine after overnight incubation with PTX,[6],shows no effect on the BRET signal changes obtained in response to Ach
same,BRET signal change in response to acetylcholine after overnight incubation with PTX,[7],The Gαo-inhibiting effects of PTX are rescued by the C351S substitution
same,BRET signal change in response to acetylcholine after overnight incubation with 100 ng/ml PTX,[8],PTX effectively blocks the BRET signal changes compared to the non-PTX treated condition
